Source: patent US20230322957A1 (ENGMAB SARL, published 2023)

Tests used:
[1] = molecular target: T1, human BCMA on the cell surface (human, UniProt Q02223 1-184); experiment: cell-based or functional assay
T1 sequence (looked up): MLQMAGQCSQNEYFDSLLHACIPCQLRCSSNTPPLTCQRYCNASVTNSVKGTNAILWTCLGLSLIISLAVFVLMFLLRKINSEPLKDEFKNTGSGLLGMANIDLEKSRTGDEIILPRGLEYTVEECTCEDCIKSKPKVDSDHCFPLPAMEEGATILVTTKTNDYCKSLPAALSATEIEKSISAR

[2] = molecular target: T1, human BCMA on the cell surface; experiment: cell-based or functional assay; remark: listed apart in the source
[3] = molecular target: T1, human BCMA on the cell surface; experiment: cell-based or functional assay; remark: listed apart in the source
[4] = molecular target: T1, human BCMA on the cell surface; experiment: cell-based or functional assay; remark: listed apart in the source
[5] = molecular target: T1, human BCMA on the cell surface; experiment: cell-based or functional assay; remark: listed apart in the source
[6] = molecular target: T1, human BCMA on the cell surface; experiment: cell-based or functional assay; remark: listed apart in the source
[7] = molecular target: T1, human BCMA on the cell surface; experiment: cell-based or functional assay; remark: listed apart in the source
[8] = molecular target: recombinant cynomolgus BCMA Fc(kih) (cynomolgus, UniProt A0A2K5UD97 4-51, biotinylated in vivo at the avi-tag at the C-terminus of the Fc knob chain); experiment: ratio of the SPR KDs of Table 4, human BCMA as reference
Protocol: Assessment of binding of anti-BCMA antibodies to recombinant BCMA by surface plasmon resonance (SPR) as follow. All SPR experiments were performed on a Biacore T200 at 25° C. with HBS-EP as running buffer (0.01M HEPES pH 7.4, 0.15M NaCl, 3 mM EDTA, 0.005% Surfactant P20, Biacore, Freiburg/Germany). The avidity of the interaction between anti-BCMA antibodies and recombinant BCMA Fc(kih) (human and cynomolgus) was determined. Biotinylated recombinant human and cynomolgus BCMA Fc(kih) were directly coupled on a SA chip following instructions (Biacore, Freiburg/Germany). The immobilization level ranged from 200 to 700 RU. […] The dissociation was monitored for 180 seconds. Bulk refractive index differences were corrected for by subtracting the response obtained on the reference flow cell. Here, the anti-BCMA antibodies were flown over an empty surface previously activated and deactivated as described in the standard amine coupling kit. Apparent kinetic constants were derived using the Biacore T200 Evaluation Software (vAA, Biacore AB, Uppsala/Sweden), to fit rate equations for 1:1 Langmuir binding by numerical integration, despite the bivalency of the interaction for comparison purposes. The affinity of the interaction between anti-BCMA antibodies and recombinant human BCMA Fc(kih) was also determined. Anti-human Fab antibody (GE Healthcare) was directly coupled on a CM5 chip at pH 5.0 using the standard amine coupling kit (Biacore, Freiburg/Germany). The immobilization level was about 6500 RU. […] The dissociation was monitored for 120 seconds. Bulk refractive index differences were corrected for by subtracting the response obtained on reference flow cell. […] Kinetic constants were derived using the Biacore T100 Evaluation Software (vAA, Biacore AB, Uppsala/Sweden), to fit rate equations for 1:1 Langmuir binding by numerical integration (Table 4).

Chain of recombinant cynomolgus BCMA Fc(kih) (A0A2K5UD97 entry or part of it): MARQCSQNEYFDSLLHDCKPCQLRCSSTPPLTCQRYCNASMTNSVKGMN

B1: 83A10-TCBcv (bispecific antibody, human IgG1, kappa, L234A L235A)
heavy 1: not shown
heavy 2: not shown
light 1: not shown
light 2: EVQLLESGGGLVQPGGSLRLSCAASGFTFSTYAMNWVRQAPGKGLEWVSRIRSKYNNYATYYADSVKGRFTISRDDSKNTLYLQMNSLRAEDTAVYYCVRHGNFGNSYVSWFAYWGQGTLVTVSSASVAAPSVFIFPPSDEQLKSGTASVVCLLNNFYPREAKVQWKVDNALQSGNSQESVTEQDSKDSTYSLSSTLTLSKADYEKHKVYACEVTHQGLSSPVTKSFNRGEC
[1]
  EC50 redirected T-cell killing of H929 cells (LDH release), Donor 1: 0.0039 nM
  EC50 redirected T-cell killing of H929 cells (LDH release), Donor 3: 0.0085 nM
  EC50 redirected T-cell killing of H929 cells (LDH release), Donor 4: 0.005 nM
  EC50 redirected T-cell killing of H929 cells (LDH release), Donor 5: 0.0043 nM
  EC50 redirected T-cell killing of H929 cells (LDH release), Donor 6: 0.0015 nM
[2]
  Annexin-V positive patient bone marrow myeloma plasma cells (%) at 10 pM: 16.8%
  Annexin-V positive patient bone marrow myeloma plasma cells (%) at 100 pM: 15.7%
  Annexin-V positive patient bone marrow myeloma plasma cells (%) at 1000 pM: 23.1%
  Annexin-V positive patient bone marrow myeloma plasma cells (%) at 10000 pM: 30.9%
  Annexin-V positive patient bone marrow myeloma plasma cells (%) at 30000 pM: 29.3%
[3]
  EC50 redirected T-cell killing of L363 cells (LDH release), Donor 1: 0.0168 nM
  EC50 redirected T-cell killing of L363 cells (LDH release), Donor 2: 0.0478 nM
  EC50 redirected T-cell killing of L363 cells (LDH release), Donor 3: 0.0284 nM
  EC50 redirected T-cell killing of L363 cells (LDH release), Donor 4: 0.0126 nM
  EC50 redirected T-cell killing of L363 cells (LDH release), Donor 5: 0.039 nM
[4]
  Granzyme B secretion EC50, PBMC + RPMI-8226 cells (CBA): 0.34 nM
  IL-10 secretion EC50, PBMC + RPMI-8226 cells (CBA): 0.3 nM
  TNF-α secretion EC50, PBMC + RPMI-8226 cells (CBA): 0.52 nM
[5]
  EC50 redirected T-cell killing of RPMI-8226 cells (LDH release), Donor 2: 0.621 nM
  EC50 redirected T-cell killing of RPMI-8226 cells (LDH release), Donor 3: 0.229 nM
  EC50 redirected T-cell killing of RPMI-8226 cells (LDH release), Donor 4: 0.035 nM
  EC50 redirected T-cell killing of RPMI-8226 cells (LDH release), Donor 5: 0.0649 nM
[6]
  Annexin-V positive JJN-3 cells (%) at 0.1 pM, Experiment 2: 13.1%
  Annexin-V positive JJN-3 cells (%) at 1 pM, Experiment 1: 11.4%
  Annexin-V positive JJN-3 cells (%) at 1 pM, Experiment 2: 14.3%
  Annexin-V positive JJN-3 cells (%) at 10 pM, Experiment 1: 11.1%
  Annexin-V positive JJN-3 cells (%) at 10 pM, Experiment 2: 15.9%
  Annexin-V positive JJN-3 cells (%) at 100 pM, Experiment 1: 9.12%
  Annexin-V positive JJN-3 cells (%) at 100 pM, Experiment 2: 16.5%
  Annexin-V positive JJN-3 cells (%) at 1000 pM, Experiment 1: 10.2%
  Annexin-V positive JJN-3 cells (%) at 1000 pM, Experiment 2: 17.5%
  Annexin-V positive JJN-3 cells (%) at 10000 pM, Experiment 1: 16.8%
  Annexin-V positive JJN-3 cells (%) at 10000 pM, Experiment 2: 22.9%
[7]
  Lysis of JJN-3 cells (%) at 0.1 pM, Experiment 2: 22.3%
  Lysis of JJN-3 cells (%) at 1 pM, Experiment 1: 24.4%
  Lysis of JJN-3 cells (%) at 1 pM, Experiment 2: -1.88%
  Lysis of JJN-3 cells (%) at 10 pM, Experiment 1: 41.9%
  Lysis of JJN-3 cells (%) at 10 pM, Experiment 2: 39.6%
  Lysis of JJN-3 cells (%) at 100 pM, Experiment 1: 18.4%
  Lysis of JJN-3 cells (%) at 100 pM, Experiment 2: 20.1%
  Lysis of JJN-3 cells (%) at 1000 pM, Experiment 1: 26.7%
  Lysis of JJN-3 cells (%) at 1000 pM, Experiment 2: 25.3%
  Lysis of JJN-3 cells (%) at 10000 pM, Experiment 1: 70.3%
  Lysis of JJN-3 cells (%) at 10000 pM, Experiment 2: 51.2%

B2: Mab 21 IgG (antibody, V domains shown)
VH: EVQLLESGGGLVQPGGSLRLSCAASGFTFSDNAMGWVRQAPGKGLEWVSAISGPGSSTYYADSVKGRFTISRDNSKNTLYLQMNSLRAEDTAVYYCAKVLGWFDYWGQGTLVTVSS
VL: EIVLTQSPGTLSLSPGERATLSCRASQSVSEYYLAWYQQKPGQAPRLLIEHASTRATGIPDRFSGSGSGTDFTLTISRLEPEDFAVYYCQQYGYPPDFTFGQGTKVEIK
notes: Tested as human IgG1; also called antibody 21
[8]
  Affinity cyno/hu gap (KD cynomolgus BCMA / KD human BCMA): 9.3 fold

B3: Mab 27 IgG (antibody, V domains shown)
VH: EVQLLESGGGLVQPGGSLRLSCAASGFTFSSAPMGWVRQAPGKGLEWVSAISYIGHTYYADSVKGRFTISRDNSKNTLYLQMNSLRAEDTAVYYCAKVLGWFDYWGQGTLVTVSS
VL: EIVLTQSPGTLSLSPGERATLSCRASQSVSEYYLAWYQQKPGQAPRLLIEHASTRATGIPDRFSGSGSGTDFTLTISRLEPEDFAVYYCQQYGYPPDFTFGQGTKVEIK
notes: Tested as human IgG1
[8]
  Affinity cyno/hu gap (KD cynomolgus BCMA / KD human BCMA): 12.7 fold

B4: Mab 33 IgG (antibody, V domains shown)
VH: EVQLLESGGGLVQPGGSLRLSCAASGFTFYTNAMGWVRQAPGKGLEWVSAINRFGGSTYYADSVKGRFTISRDNSKNTLYLQMNSLRAEDTAVYYCAKVLGWFDYWGQGTLVTVSS
VL: EIVLTQSPGTLSLSPGERATLSCRASQSVSEYYLAWYQQKPGQAPRLLIEHASTRATGIPDRFSGSGSGTDFTLTISRLEPEDFAVYYCQQYGYPPDFTFGQGTKVEIK
notes: Tested as human IgG1
[8]
  Affinity cyno/hu gap (KD cynomolgus BCMA / KD human BCMA): 4.2 fold

B5: Mab 22 IgG (antibody, V domains shown)
VH: EVQLLESGGGLVQPGGSLRLSCAASGFTFSDNAMGWVRQAPGKGLEWVSAISGPGSSTYYADSVKGRFTISRDNSKNTLYLQMNSLRAEDTAVYYCAKVLGWFDYWGQGTLVTVSS
VL: EIVLTQSPGTLSLSPGERATLSCRASQSVSSYYLAWYQQKPGQAPRLLISGAGSRATGIPDRFSGSGSGTDFTLTISRLEPEDFAVYYCQQYGYPPDFTFGQGTKVEIK
notes: Tested as human IgG1; also called antibody 22; clone 22
[8]
  Affinity cyno/hu gap (KD cynomolgus BCMA / KD human BCMA): 15.4 fold

B6: Mab 39 IgG (antibody, V domains shown)
VH: EVQLLESGGGLVQPGGSLRLSCAASGFTFTQNAMGWVRQAPGKGLEWVSAISPTGFSTYYADSVKGRFTISRDNSKNTLYLQMNSLRAEDTAVYYCAKVLGWFDYWGQGTLVTVSS
VL: EIVLTQSPGTLSLSPGERATLSCRASQSVSEYYLAWYQQKPGQAPRLLIEHASTRATGIPDRFSGSGSGTDFTLTISRLEPEDFAVYYCQQYGYPPDFTFGQGTKVEIK
notes: Tested as human IgG1
[8]
  Affinity cyno/hu gap (KD cynomolgus BCMA / KD human BCMA): 14 fold

B7: Mab 42 IgG (antibody, V domains shown)
VH: EVQLLESGGGLVQPGGSLRLSCAASGFTFSDNAMGWVRQAPGKGLEWVSAISGPGSSTYYADSVKGRFTISRDNSKNTLYLQMNSLRAEDTAVYYCAKVLGWFDYWGQGTLVTVSS
VL: EIVLTQSPGTLSLSPGERATLSCRASQSVSDEYLSWYQQKPGQAPRLLIHSASTRATGIPDRFSGSGSGTDFTLAISRLEPEDFAVYYCQQYGYPPDFTFGQGTKVEIK
notes: Tested as human IgG1; also called antibody 42; clone 42
[8]
  Affinity cyno/hu gap (KD cynomolgus BCMA / KD human BCMA): 1.7 fold
